Experiments:
[1] = biological target: T1, Scheffersomyces stipitis pheromone GPCR SsSte2 (Scheffersomyces stipitis); experiment: cell-based or functional assay
T1 sequence: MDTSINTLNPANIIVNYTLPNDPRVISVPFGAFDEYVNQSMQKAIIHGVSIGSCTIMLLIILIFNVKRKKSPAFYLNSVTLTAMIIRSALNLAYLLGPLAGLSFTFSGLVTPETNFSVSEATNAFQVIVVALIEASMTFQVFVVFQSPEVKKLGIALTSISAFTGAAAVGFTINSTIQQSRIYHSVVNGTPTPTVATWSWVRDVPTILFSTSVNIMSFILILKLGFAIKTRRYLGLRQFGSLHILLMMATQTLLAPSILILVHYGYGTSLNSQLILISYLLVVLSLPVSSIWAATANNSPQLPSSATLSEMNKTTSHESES

[2] = biological target: T2, Schizosaccharomyces japonicus pheromone GPCR SjSte2 (Schizosaccharomyces japonicus); experiment: cell-based or functional assay
T2 sequence: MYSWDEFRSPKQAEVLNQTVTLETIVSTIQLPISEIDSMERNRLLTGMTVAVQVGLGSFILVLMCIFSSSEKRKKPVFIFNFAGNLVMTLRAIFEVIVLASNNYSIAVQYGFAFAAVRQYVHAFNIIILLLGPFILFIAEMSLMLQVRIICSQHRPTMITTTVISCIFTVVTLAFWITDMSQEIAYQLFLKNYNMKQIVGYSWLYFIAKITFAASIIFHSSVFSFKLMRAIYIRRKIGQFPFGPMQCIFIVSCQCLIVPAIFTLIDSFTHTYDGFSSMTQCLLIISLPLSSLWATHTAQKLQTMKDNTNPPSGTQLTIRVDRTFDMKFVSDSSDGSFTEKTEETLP

| Substance | EC50, mCherry, yMJ194 [1] [nM] | EC50, mCherry, yTC453 [1] [nM] | maximal activation, mCherry, yMJ194 [1] [A.U.] | maximal activation, mCherry, yTC453 [1] [A.U.] | apparent EC50, ymTurquoise2, strain co-expressing SjSxa2 [2] [nM] |
| --- | --- | --- | --- | --- | --- |
| Scheffersomyces stipitis cognate peptide (SsPep) | 12 | 7 | 320 | 5300 |  |
| S. japonicus pheromone peptide (SjPep) |  |  |  |  | 100000 |

Source: patent publication US20240368664A1, “LIVE YEAST BIOSENSORS AND METHODS OF USE THEREOF” (priority 2021, published 2024)
